The record followed here is publication PMC3861120, “A Domesticated PiggyBac Transposase Interacts with Heterochromatin and Catalyzes Reproducible DNA Elimination in Tetrahymena” (PLoS Genetics, 2013).

Where no end group is shown, it is not given here. [ ]: non-standard residue; d: D form. Lys(Me3) = C[N+](C)(C)CCCC[C@H](N)C(=O)O; PEG = not defined here

First the molecules themselves.
B1: Tetrahymena histone H3 peptide, amino acids 1-19, tri-methylated at lysine 4, C-terminally biotinylated (peptide, UniProt P69150 2-20, looked up)
peptide: ART[Lys(Me3)]QTARKSTGAKAPRKQ-{PEG-biotin}
modifications: reading uncertain
notes: histone H3, Tetrahymena, amino acids 1-19; That the K4me3 peptide is the 1-19 peptide follows from the position of the residue; also called H3K4me3 peptide; source: synthetic peptide
B2: Tetrahymena histone H3 peptide, amino acids 1-19, tri-methylated at lysine 9, C-terminally biotinylated (peptide, UniProt P69150 2-20, looked up)
peptide: ARTKQTARKSTGAKAPRKQ
modifications: tri-methylated lysine 9; biotin at the C-terminus with a PEG linker
notes: histone H3, Tetrahymena, amino acids 1-19; also called H3K9me3 peptide; source: synthetic peptide
B3: Tetrahymena histone H3 peptide, amino acids 16-35, tri-methylated at lysine 27, C-terminally biotinylated (peptide, UniProt P69150 17-36, looked up)
peptide: PRKQLASKAAR[Lys(Me3)]SAPATGGI-{PEG-biotin}
modifications: reading uncertain
notes: histone H3, Tetrahymena, amino acids 16-35; also called H3K27me3 peptide; source: synthetic peptide
B4: Tetrahymena histone H3 peptide, amino acids 1-19, unmodified, C-terminally biotinylated (peptide, UniProt P69150 2-20, looked up)
peptide: ARTKQTARKSTGAKAPRKQ-{PEG-biotin}
modifications: reading uncertain
notes: histone H3, Tetrahymena, amino acids 1-19; also called unmodified peptide (1-19); source: synthetic peptide
B5: Tetrahymena histone H3 peptide, amino acids 16-35, unmodified, C-terminally biotinylated (peptide, UniProt P69150 17-36, looked up)
peptide: PRKQLASKAARKSAPATGGI-{PEG-biotin}
modifications: reading uncertain
notes: histone H3, Tetrahymena, amino acids 16-35; also called unmodified peptide (16-35); source: synthetic peptide

The experiment addresses T1, MBP-tagged cysteine-rich domain (566 aa-657 aa) of Tpb2p, MBP-Tpb2p-CRD (WT) (Tetrahymena thermophila, UniProt D2Z1K6 566-657).
T1 construct: Tpb2p (Tetrahymena piggyBac-like transposase 2), cysteine-rich domain, aa 566-657; amplified from a codon-optimized TPB2 coding region in pMAL-TPB2; Cloned in pMalC2X, which is expected to put MBP at the N-terminus (surmise); also called cysteine-rich domain of Tpb2p; source: E. coli BL21(DE3), purified (Amylose resin, maltose elution, dialysis)
T1 sequence (looked up): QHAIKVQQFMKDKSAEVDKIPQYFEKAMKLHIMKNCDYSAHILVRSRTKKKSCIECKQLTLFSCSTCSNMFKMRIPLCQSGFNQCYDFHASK
Description: pull-down; biotin-tagged histone peptides (1 ug) immobilised on streptavidin Dynabeads, 1 ug MBP-Tpb2p-CRD added, overnight at 4°C; 10 mM Tris pH 7.5, 0.1 mM ZnSO4, 0.05% NP40, 250 mM NaCl; western blot with anti-MBP. The note with it: both partners purified. On the technique in general: In western blotting, separated proteins are transferred to a membrane and probed.
In the case of B1, the binding result is recorded as “binds”.

With B2, the binding result is on record as “binds”.

B3: the binding result was “binds”.

Consider B4, for which the binding result was “binds”.

B5: the binding result is given as “binds”.
